The term stoichiometry N denotes a count of units in the complex or per binding partner.

The target of experiment [1] is RV3 F ectodomain without GCN4, Q89M + Q222I + L168P + S470V (human respirovirus 3 (HPIV3/Seattle/USA/10Q7/2010)). Kind of experiment: SEC. In general terms: In gel filtration, larger molecules generally elute earlier.
The target in experiment [2] is RV3 F ectodomain without GCN4, Q89M + Q222I + L168P + S470V + S477V (human respirovirus 3 (HPIV3/Seattle/USA/10Q7/2010)). The experiment in a line: SEC.
Experiment [3] deals with RV3 F ectodomain without GCN4, Q89M + Q222I + L168P + S477V (human respirovirus 3 (HPIV3/Seattle/USA/10Q7/2010)). Kind of experiment: SEC.
Experiment [4] has as its target RV3 F ectodomain without GCN4, five head-stabilizing substitutions (S41P, N167P, Q89M, Q222I, L168P) (human respirovirus 3 (HPIV3/Seattle/USA/10Q7/2010)). The experiment in a line: SEC-MALS; analytical SEC-MALS of F variants in supernatant.
Experiment [5] deals with RV3 F ectodomain without GCN4, five head-stabilizing substitutions plus S470V and S477V (human respirovirus 3 (HPIV3/Seattle/USA/10Q7/2010)). The description is as above.
In experiment [6] the target is stabilized RV1 preF (A44P + E170P + Q171P + S473V + A480V) (human respirovirus 1) (UniProt P12605). The experiment in a line: SEC.
Experiment [7] has the same target. The experiment in a line: SEC-MALS.
In experiment [8] the target is stabilized RV1 preF with K339P (A44P + E170P + Q171P + K339P + S473V + A480V) (human respirovirus 1) (UniProt P12605). Kind of experiment: SEC.

“RV3 F ectodomain without GCN4, Q89M + Q222I + L168P + S470V (domain or fragment)”: the stoichiometry N in experiment [1] was 3. “RV3 F ectodomain without GCN4, Q89M + Q222I + L168P + S470V + S477V (domain or fragment)”: the stoichiometry N in experiment [2] worked out at 3.

Take “RV3 F ectodomain without GCN4, Q89M + Q222I + L168P + S477V (domain or fragment)”: in experiment [3], the stoichiometry N turned out to be 3. As to “RV3 F ectodomain without GCN4, five head-stabilizing substitutions (S41P, N167P, Q89M, Q222I, L168P) (domain or fragment)”, the stoichiometry N in experiment [4] is 3. With “RV3 F ectodomain without GCN4, five head-stabilizing substitutions plus S470V and S477V (domain or fragment)”, the stoichiometry N in experiment [5] was 3. Take “stabilized RV1 preF (A44P + E170P + Q171P + S473V + A480V) (from UniProt P12605 22-496) (domain or fragment)”: the stoichiometry N in experiment [6] and in experiment [7] was 3 in each case. Take “stabilized RV1 preF with K339P (A44P + E170P + Q171P + K339P + S473V + A480V) (from UniProt P12605 22-496) (domain or fragment)”: in experiment [8], the stoichiometry N stood at 3.

These data come from article PMC11143371.
